Laboratory results reported in patent US20250019439A1 (Adimab, published 2025).

Experiments:
ADI-22523 IgG = biological target: T1, ADI-22523 IgG; experiment: BLI; tip anti-ID IgG, solution ADI-22523 IgG
T1 construct: anti-CD3 IgG
In short: (§1)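 Anti-ID IgG was captured on AHC biosensors, equilibrated in assay buffer for 30 min, then baselined for 60 s. KD = koff/kon came from a 1:1 binding fit.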

ADI-74967 [1] = biological target: T2, ADI-74967; experiment: SPR Carterra avidity, yeast anti-ID
T2 construct: pH-dependent anti-CD3 antibody made in CHO cells
In short: (§2)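 Measured at 25° C in HBSTE running buffer on a Carterra LSA; anti-CD3 antibodies (100 nM) were captured for 5 min on an amine-coupled goat anti-human Fc HC30M chip. Anti-idiotype dissociation was followed for 300s, and double-referenced sensorgrams were fitted to a 1:1 binding model.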

CTL-62223 = biological target: T3, CTL-62223; experiment: SPR Carterra avidity, yeast anti-ID
T3 construct: also called mosunetuzumab
In short: as §2

ADI-70330 = biological target: T4, ADI-70330; experiment: SPR Carterra avidity, yeast anti-ID
T4 construct: anti-CD3 antibody made in CHO cells, captured by anti-human Fc
T4 sequence (VH, as listed by the source limits assumed, chain 1 of 2): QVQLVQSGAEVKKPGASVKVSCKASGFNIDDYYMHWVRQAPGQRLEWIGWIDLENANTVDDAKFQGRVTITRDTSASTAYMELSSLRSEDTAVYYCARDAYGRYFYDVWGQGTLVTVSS
T4 sequence (VL, as listed by the source limits assumed, chain 2 of 2): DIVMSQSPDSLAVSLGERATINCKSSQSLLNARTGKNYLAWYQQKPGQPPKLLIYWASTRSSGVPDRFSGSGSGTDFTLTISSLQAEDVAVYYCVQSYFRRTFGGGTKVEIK
In short: as §2

ADI-26916 IgG = biological target: T5, ADI-26916 IgG; experiment: SPR Carterra avidity, yeast anti-ID
T5 construct: anti-CD3 IgG
T5 sequence (VH, as listed by the source, chain 1 of 2): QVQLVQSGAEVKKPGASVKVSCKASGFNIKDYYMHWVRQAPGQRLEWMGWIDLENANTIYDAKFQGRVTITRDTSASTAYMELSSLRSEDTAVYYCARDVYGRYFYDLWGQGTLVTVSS
T5 sequence (VL, as listed by the source, chain 2 of 2): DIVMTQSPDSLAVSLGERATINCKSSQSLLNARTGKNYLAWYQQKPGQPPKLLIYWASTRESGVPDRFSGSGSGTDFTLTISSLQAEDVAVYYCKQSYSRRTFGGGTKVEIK
In short: as §2

ADI-67450 [2] = biological target: T6, ADI-67450; experiment: SPR Carterra avidity, yeast anti-ID
T6 construct: anti-CD3 antibody made in CHO cells, captured by anti-human Fc
In short: as §2

ADI-70327 = biological target: T7, ADI-70327; experiment: SPR Carterra avidity, yeast anti-ID
T7 construct: anti-CD3 antibody made in CHO cells, captured by anti-human Fc
T7 sequence (VH, as listed by the source limits assumed, chain 1 of 2): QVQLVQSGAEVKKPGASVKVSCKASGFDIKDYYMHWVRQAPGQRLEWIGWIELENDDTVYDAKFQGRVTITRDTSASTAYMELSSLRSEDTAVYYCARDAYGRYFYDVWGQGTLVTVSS
In short: as §2

ADI-48587 = biological target: T8, ADI-48587; experiment: SPR Carterra avidity, yeast anti-ID
T8 construct: pH-dependent anti-CD3 antibody made in CHO cells
In short: as §2

ADI-76357 = biological target: T9, ADI-76357; experiment: SPR Carterra avidity, yeast anti-ID
T9 construct: anti-CD3 antibody made in CHO cells, captured by anti-human Fc
T9 sequence (VH, as listed by the source, chain 1 of 2): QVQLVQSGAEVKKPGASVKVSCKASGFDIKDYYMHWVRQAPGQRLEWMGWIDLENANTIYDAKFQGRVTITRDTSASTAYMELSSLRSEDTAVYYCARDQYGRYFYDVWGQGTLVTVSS
In short: as §2

ADI-76358 = biological target: T10, ADI-76358; experiment: SPR Carterra avidity, yeast anti-ID
T10 construct: anti-CD3 antibody made in CHO cells, captured by anti-human Fc
In short: as §2

ADI-76360 = biological target: T11, ADI-76360; experiment: SPR Carterra avidity, yeast anti-ID
T11 construct: anti-CD3 antibody made in CHO cells, captured by anti-human Fc
In short: as §2

ADI-26919 = biological target: T12, ADI-26919; experiment: SPR Carterra avidity, yeast anti-ID
T12 construct: anti-CD3 antibody made in CHO cells, captured by anti-human Fc
T12 sequence (VH, as listed by the source limits assumed, chain 1 of 2): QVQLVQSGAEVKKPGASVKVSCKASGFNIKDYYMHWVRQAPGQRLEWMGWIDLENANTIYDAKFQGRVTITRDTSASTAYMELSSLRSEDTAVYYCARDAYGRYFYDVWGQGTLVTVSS
T12 sequence (VL, as listed by the source limits assumed, chain 2 of 2): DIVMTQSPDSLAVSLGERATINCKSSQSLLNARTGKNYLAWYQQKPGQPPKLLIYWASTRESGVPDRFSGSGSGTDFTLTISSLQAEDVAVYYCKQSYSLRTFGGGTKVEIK
In short: as §2

ADI-74968 = biological target: T13, ADI-74968; experiment: SPR Carterra avidity, yeast anti-ID
T13 construct: pH-dependent anti-CD3 antibody made in CHO cells
In short: as §2

ADI-26913 IgG [3] = biological target: T14, ADI-26913 IgG; experiment: SPR Carterra avidity, yeast anti-ID
T14 construct: anti-CD3 IgG
T14 sequence (VH, as listed by the source limits assumed, chain 1 of 2): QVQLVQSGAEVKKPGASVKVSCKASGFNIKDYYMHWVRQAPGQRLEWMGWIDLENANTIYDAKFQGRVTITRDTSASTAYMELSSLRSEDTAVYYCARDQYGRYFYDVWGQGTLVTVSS
In short: as §2

ADI-50024 = biological target: T15, ADI-50024; experiment: SPR Carterra avidity, yeast anti-ID
T15 construct: anti-CD3 antibody made in CHO cells, captured by anti-human Fc
T15 sequence (VH, as listed by the source limits assumed, chain 1 of 2): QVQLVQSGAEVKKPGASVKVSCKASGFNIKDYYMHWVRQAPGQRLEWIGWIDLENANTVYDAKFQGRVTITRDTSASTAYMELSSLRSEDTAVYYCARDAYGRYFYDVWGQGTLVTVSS
In short: as §2

ADI-26906 IgG = biological target: T16, ADI-26906 IgG; experiment: SPR Carterra avidity, yeast anti-ID
T16 construct: anti-CD3 IgG
In short: as §2

ADI-74966 [4] = biological target: T17, ADI-74966; experiment: SPR Carterra avidity, yeast anti-ID
T17 construct: pH-dependent anti-CD3 antibody made in CHO cells
In short: as §2

ADI-70326 = biological target: T18, ADI-70326; experiment: SPR Carterra avidity, yeast anti-ID
T18 construct: anti-CD3 antibody made in CHO cells, captured by anti-human Fc
In short: as §2

ADI-22523 Fab = biological target: T19, ADI-22523 Fab; experiment: BLI; tip anti-ID IgG, solution ADI-22523 Fab
T19 construct: anti-CD3 Fab by papain digestion of the IgG
T19 sequence (VH, as listed by the source limits assumed, chain 1 of 2): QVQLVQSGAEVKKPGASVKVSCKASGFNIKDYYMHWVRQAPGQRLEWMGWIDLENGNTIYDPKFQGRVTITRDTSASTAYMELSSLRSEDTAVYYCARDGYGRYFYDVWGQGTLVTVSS
T19 sequence (VL, as listed by the source limits assumed, chain 2 of 2): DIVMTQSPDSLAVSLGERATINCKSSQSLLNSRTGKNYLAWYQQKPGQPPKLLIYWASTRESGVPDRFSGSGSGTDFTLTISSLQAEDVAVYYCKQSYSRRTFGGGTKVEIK
In short: as §1

ADI-67445 = biological target: T20, ADI-67445; experiment: SPR Carterra avidity, yeast anti-ID, *koff limit
T20 construct: anti-CD3 antibody made in CHO cells, captured by anti-human Fc
In short: as §2

ADI-26921 IgG = biological target: T21, ADI-26921 IgG; experiment: SPR Carterra avidity, yeast anti-ID, *koff limit
T21 construct: anti-CD3 IgG
T21 sequence (VH, as listed by the source limits assumed, chain 1 of 2): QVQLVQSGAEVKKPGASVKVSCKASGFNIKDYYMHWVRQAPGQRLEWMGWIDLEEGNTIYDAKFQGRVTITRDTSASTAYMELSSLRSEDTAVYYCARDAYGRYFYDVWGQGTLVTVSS
In short: as §2

ADI-76359 = biological target: T22, ADI-76359; experiment: SPR Carterra avidity, yeast anti-ID, *koff limit
T22 construct: anti-CD3 antibody made in CHO cells, captured by anti-human Fc
T22 sequence (VH, as listed by the source, chain 1 of 2): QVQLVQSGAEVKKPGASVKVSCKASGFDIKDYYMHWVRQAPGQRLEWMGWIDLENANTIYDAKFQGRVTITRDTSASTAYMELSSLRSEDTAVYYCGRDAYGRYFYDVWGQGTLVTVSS
In short: as §2

ADI-26924 = biological target: T23, ADI-26924; experiment: SPR Carterra avidity, yeast anti-ID, *koff limit
T23 construct: anti-CD3 antibody made in CHO cells, captured by anti-human Fc
T23 sequence (VH, as listed by the source, chain 1 of 2): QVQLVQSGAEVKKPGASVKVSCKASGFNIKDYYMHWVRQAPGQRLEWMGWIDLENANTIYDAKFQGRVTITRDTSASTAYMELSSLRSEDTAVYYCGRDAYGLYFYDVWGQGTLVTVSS
In short: as §2

ADI-26920 IgG = biological target: T24, ADI-26920 IgG; experiment: SPR Carterra avidity, yeast anti-ID, *koff limit
T24 construct: anti-CD3 IgG
T24 sequence (VH, as listed by the source limits assumed, chain 1 of 2): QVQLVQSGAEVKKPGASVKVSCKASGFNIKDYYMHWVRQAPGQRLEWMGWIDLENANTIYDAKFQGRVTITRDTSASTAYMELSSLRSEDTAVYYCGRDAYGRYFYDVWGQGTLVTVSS
In short: as §2

ADI-26943 = biological target: T25, ADI-26943; experiment: SPR Carterra avidity, yeast anti-ID, *koff limit
T25 construct: anti-CD3 antibody made in CHO cells, captured by anti-human Fc
In short: as §2

ADI-76361 [5] = biological target: T26, ADI-76361; experiment: SPR Carterra avidity, yeast anti-ID, *koff limit
T26 construct: anti-CD3 antibody made in CHO cells, captured by anti-human Fc
T26 sequence (VH, as listed by the source, chain 1 of 2): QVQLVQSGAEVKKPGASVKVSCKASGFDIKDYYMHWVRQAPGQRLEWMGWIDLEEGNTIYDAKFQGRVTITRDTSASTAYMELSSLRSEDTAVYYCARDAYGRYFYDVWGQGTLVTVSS
In short: as §2

ADI-67447 = biological target: T27, ADI-67447; experiment: SPR Carterra avidity, yeast anti-ID, *koff limit
T27 construct: anti-CD3 antibody made in CHO cells, captured by anti-human Fc
In short: as §2

ADI-76362 = biological target: T28, ADI-76362; experiment: SPR Carterra avidity, yeast anti-ID, *koff limit
T28 construct: anti-CD3 antibody made in CHO cells, captured by anti-human Fc
T28 sequence (VH, as listed by the source, chain 1 of 2): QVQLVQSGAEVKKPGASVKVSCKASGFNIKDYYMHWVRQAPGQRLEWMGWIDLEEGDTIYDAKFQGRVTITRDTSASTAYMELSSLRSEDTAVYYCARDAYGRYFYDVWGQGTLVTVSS
In short: as §2

ADI-26909 = biological target: T29, ADI-26909; experiment: SPR Carterra avidity, yeast anti-ID, *koff limit
T29 construct: anti-CD3 antibody made in CHO cells, captured by anti-human Fc
T29 sequence (VH, as listed by the source limits assumed, chain 1 of 2): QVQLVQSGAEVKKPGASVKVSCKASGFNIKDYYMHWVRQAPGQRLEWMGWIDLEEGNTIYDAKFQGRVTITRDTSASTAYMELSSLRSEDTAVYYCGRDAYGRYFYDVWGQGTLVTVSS
In short: as §2

CTL-62240 = biological target: T30, CTL-62240; experiment: SPR Carterra, yeast anti-ID
T30 construct: also called ONO-4685
In short: as §2

ADI-26912 = biological target: T31, ADI-26912; experiment: SPR Carterra, yeast anti-ID
T31 construct: anti-CD3 antibody made in CHO cells, captured by anti-human Fc
In short: as §2

CTL-62227 = biological target: T32, CTL-62227; experiment: SPR Carterra, yeast anti-ID
T32 construct: also called odronextamab
In short: as §2

ADI-26915 = biological target: T33, ADI-26915; experiment: SPR Carterra, yeast anti-ID
T33 construct: anti-CD3 antibody made in CHO cells, captured by anti-human Fc
In short: as §2

ADI-48650 [6] = biological target: T34, ADI-48650; experiment: SPR Carterra, yeast anti-ID
T34 construct: pH-dependent anti-CD3 antibody made in CHO cells
T34 sequence (VH, as listed by the source, chain 1 of 2): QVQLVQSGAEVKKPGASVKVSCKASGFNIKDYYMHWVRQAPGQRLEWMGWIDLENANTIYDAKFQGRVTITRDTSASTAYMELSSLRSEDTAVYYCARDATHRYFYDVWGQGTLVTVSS
T34 sequence (VL, as listed by the source, chain 2 of 2): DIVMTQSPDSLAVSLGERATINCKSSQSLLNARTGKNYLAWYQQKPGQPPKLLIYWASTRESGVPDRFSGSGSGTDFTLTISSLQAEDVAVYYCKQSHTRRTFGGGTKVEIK
In short: as §2

ADI-74965 [7] = biological target: T35, ADI-74965; experiment: SPR Carterra, yeast anti-ID
T35 construct: pH-dependent anti-CD3 antibody made in CHO cells
In short: as §2

ADI-48592 [8] = biological target: T36, ADI-48592; experiment: SPR Carterra, yeast anti-ID
T36 construct: pH-dependent anti-CD3 antibody made in CHO cells
In short: as §2

ADI-48576 [9] = biological target: T37, ADI-48576; experiment: SPR Carterra, yeast anti-ID
T37 construct: pH-dependent anti-CD3 antibody made in CHO cells
In short: as §2

CTL-62228 = biological target: T38, CTL-62228; experiment: SPR Carterra, yeast anti-ID
T38 construct: also called glofitamab
In short: as §2

ADI-76361 [10] = biological target: T26, ADI-76361; experiment: SPR Carterra avidity, yeast anti-ID
In short: as §2

ADI-48650 [11] = biological target: T34, ADI-48650; experiment: SPR Carterra avidity, yeast anti-ID
In short: as §2

ADI-74965 [12] = biological target: T35, ADI-74965; experiment: SPR Carterra avidity, yeast anti-ID
In short: as §2

ADI-48592 [13] = biological target: T36, ADI-48592; experiment: SPR Carterra avidity, yeast anti-ID
In short: as §2

ADI-48576 [14] = biological target: T37, ADI-48576; experiment: SPR Carterra avidity, yeast anti-ID
In short: as §2

ADI-74967 [15] = biological target: T2, ADI-74967; experiment: SPR Carterra avidity, yeast anti-ID, *koff limit
In short: as §2

ADI-67450 [16] = biological target: T6, ADI-67450; experiment: SPR Carterra avidity, yeast anti-ID, *koff limit
In short: as §2

ADI-26913 IgG [17] = biological target: T14, ADI-26913 IgG; experiment: SPR Carterra avidity, yeast anti-ID, *koff limit
In short: as §2

ADI-74966 [18] = biological target: T17, ADI-74966; experiment: SPR Carterra avidity, yeast anti-ID, *koff limit
In short: as §2

| Binder | Kd (ADI-22523 IgG) [nM] | Kd (CTL-62223) [nM] | Kd (ADI-70330) [nM] | Kd (ADI-26916 IgG) [nM] | Kd (ADI-70327) [nM] | Kd (ADI-76357) [nM] | Kd (ADI-76358) [nM] | Kd (ADI-76360) [nM] | Kd (ADI-26919) [nM] | Kd (ADI-50024) [nM] | Kd (ADI-26906 IgG) [nM] | Kd (ADI-70326) [nM] | Kd (ADI-22523 Fab) [nM] | Kd (ADI-67445) [nM] | Kd (ADI-26921 IgG) [nM] | Kd (ADI-76359) [nM] | Kd (ADI-26924) [nM] | Kd (ADI-26920 IgG) [nM] | Kd (ADI-26943) [nM] | Kd (ADI-67447) [nM] | also measured |
| --- | --- | --- | --- | --- | --- | --- | --- | --- | --- | --- | --- | --- | --- | --- | --- | --- | --- | --- | --- | --- | --- |
| ADI-34131 (antibody, V domains shown, anti-ID IgG) VH: QVQLVQSGAEVKKPGSSVKVSCKASGGTFSSYAISWVRQAPGQGLEWMGGIIPIFGTANYAQKFQGRVTITADESTSTAYMELSSLRSEDTAVYYCARGAPNYYGSGGYDDGWFDPWGQGTLVTVSS VL: not shown | 0.73 | 54 | 80 | 84 | 130 | 35 | 91 | 43 | 25 | 18 | 27 | 130 | 13.5 | 25 | 18 | 8.7 | 17 | 11 | 22 | 13 | Kd (ADI-74967 [1]): 22 nM; Kd (ADI-67450 [2]): 69 nM; binding result (ADI-48587): binds; binding result (ADI-74968): binds; Kd (ADI-26913 IgG [3]): 20 nM; Kd (ADI-74966 [4]): 31 nM; Kd (ADI-76361 [5]): 19 nM; Kd (ADI-76362): 16 nM; Kd (ADI-26909): 13 nM; binding result (CTL-62240): no binding (tested: up to 200 nM); binding result (ADI-26912): no binding (tested: up to 200 nM); binding result (CTL-62227): no binding (tested: up to 200 nM); binding result (ADI-26915): no binding (tested: up to 200 nM); binding result (ADI-48650 [6]): no binding (tested: up to 200 nM); binding result (ADI-74965 [7]): no binding (tested: up to 200 nM); binding result (ADI-48592 [8]): no binding (tested: up to 200 nM); binding result (ADI-48576 [9]): no binding (tested: up to 200 nM); binding result (CTL-62228): no binding (tested: up to 200 nM) |
| ADI-34138 (antibody, V domains shown, anti-ID IgG) VH: QVQLVQSGAEVKKPGSSVKVSCKASGGTFSSYAISWVRQAPGQGLEWMGGIIPIFGTANYAQKFQGRVTITADESTSTAYMELSSLRSEDTAVYYCARGAPNYYGSGGYDDGWFDPWGQGTLVTVSS VL: EIVMTQSPGTLSLSPGERATLSCRASQSVSSSYLAWYQQKPGQAPRLLIYGASNRATGIPDRFSGSGSGTDFTLTISRLEPEDFAVYYCQQAHTALWTFGGGTKVEIK | 0.57 | 46 | 45 | 64 | 160 | 17 | 29 | 57 | 33 | 19 | 20 | 42 | 9.69 | 27 | 17 | 9.5 | 16 | 10 | 22 | 12 | Kd (ADI-76361 [10]): 21 nM; Kd (ADI-48587): 29 nM; Kd (ADI-48650 [11]): 110 nM; Kd (ADI-74965 [12]): 34 nM; binding result (ADI-48592 [13]): binds; Kd (ADI-74968): 29 nM; binding result (ADI-48576 [14]): binds; Kd (ADI-74967 [15]): 18 nM; Kd (ADI-67450 [16]): 27 nM; Kd (ADI-76362): 17 nM; Kd (ADI-26909): 12 nM; Kd (ADI-26913 IgG [17]): 16 nM; Kd (ADI-74966 [18]): 15 nM |
